# Results reported in US20230192890A1.
# What was measured:
# [1] = target: full-length recombinant mouse PAD4 (mouse) (UniProt Q9Z183); assay: ELISA, mouse PAD4 on plate, antibody 0.0009766 ug/mL
# [2] = target: full-length recombinant mouse PAD4 (mouse) (UniProt Q9Z183); assay: ELISA, mouse PAD4 on plate, antibody 0.25 ug/mL
# [3] = target: Ala mutant SEQ ID NO: 35 (human); assay: ELISA, peptide on plate (10 ug/mL)
# [4] = target: T1, Ala mutant SEQ ID NO: 43 (human); assay: ELISA, peptide on plate (10 ug/mL)
# T1 sequence (peptide): EENMDDQWMQDEMEIGA
# [5] = target: Ala mutant SEQ ID NO: 34 (human); assay: ELISA, peptide on plate (10 ug/mL)
# [6] = target: T2, Ala mutant SEQ ID NO: 36 (human); assay: ELISA, peptide on plate (10 ug/mL)
# T2 sequence (peptide): EENMDDQWMADEMEIGY
# [7] = target: T3, Ala mutant having 3-amino acid substitution, SEQ ID NO: 46 (human); assay: ELISA, peptide on plate (10 ug/mL)
# T3 sequence (peptide): EENMDDAAAQDEMEIGY
# [8] = target: T4, Ala mutant SEQ ID NO: 38 (human); assay: ELISA, peptide on plate (10 ug/mL)
# T4 sequence (peptide): EENMDDQWMQDAMEIGY
# [9] = target: T5, Ala mutant SEQ ID NO: 30 (human); assay: ELISA, peptide on plate (10 ug/mL)
# T5 sequence (peptide): EENADDQWMQDEMEIGY
# [10] = target: T6, Ala mutant SEQ ID NO: 31 (human); assay: ELISA, peptide on plate (10 ug/mL)
# T6 sequence (peptide): EENMADQWMQDEMEIGY
# [11] = target: T7, Ala mutant having 3-amino acid substitution, SEQ ID NO: 47 (human); assay: ELISA, peptide on plate (10 ug/mL)
# T7 sequence (peptide): EENMDDQWMAAAMEIGY
# [12] = target: T8, Ala mutant SEQ ID NO: 28 (human); assay: ELISA, peptide on plate (10 ug/mL)
# T8 sequence (peptide): EANMDDQWMQDEMEIGY
# [13] = target: T9, Ala mutant SEQ ID NO: 40 (human); assay: ELISA, peptide on plate (10 ug/mL)
# T9 sequence (peptide): EENMDDQWMQDEMAIGY
# [14] = target: T10, Ala mutant SEQ ID NO: 39 (human); assay: ELISA, peptide on plate (10 ug/mL)
# T10 sequence (peptide): EENMDDQWMQDEAEIGY
# [15] = target: T11, Ala mutant SEQ ID NO: 33 (human); assay: ELISA, peptide on plate (10 ug/mL)
# T11 sequence (peptide): EENMDDAWMQDEMEIGY
# [16] = target: T12, Ala mutant SEQ ID NO: 27 (human); assay: ELISA, peptide on plate (10 ug/mL)
# T12 sequence (peptide): AENMDDQWMQDEMEIGY
# [17] = target: T13, Ala mutant SEQ ID NO: 29 (human); assay: ELISA, peptide on plate (10 ug/mL)
# T13 sequence (peptide): EEAMDDQWMQDEMEIGY
# [18] = target: T14, Ala mutant SEQ ID NO: 37 (human); assay: ELISA, peptide on plate (10 ug/mL)
# T14 sequence (peptide): EENMDDQWMQAEMEIGY
# [19] = target: T15, Ala mutant having 3-amino acid substitution, SEQ ID NO: 49 (human); assay: ELISA, peptide on plate (10 ug/mL)
# T15 sequence (peptide): EENMDDQWMQDEMEIAA
# [20] = target: T16, Ala mutant SEQ ID NO: 41 (human); assay: ELISA, peptide on plate (10 ug/mL)
# T16 sequence (peptide): EENMDDQWMQDEMEAGY
# [21] = target: T17, TA0096 (peptide antigen corresponding to positions 340 to 356 of PAD4) (human); assay: ELISA, peptide on plate (10 ug/mL)
# T17 sequence (peptide): EENMDDQWMQDEMEIGY
# [22] = target: T18, Ala mutant SEQ ID NO: 32 (human); assay: ELISA, peptide on plate (10 ug/mL)
# T18 sequence (peptide): EENMDAQWMQDEMEIGY
# [23] = target: T19, Ala mutant SEQ ID NO: 42 (human); assay: ELISA, peptide on plate (10 ug/mL)
# T19 sequence (peptide): EENMDDQWMQDEMEIAY
# [24] = target: T20, Ala mutant having 3-amino acid substitution, SEQ ID NO: 48 (human); assay: ELISA, peptide on plate (10 ug/mL)
# T20 sequence (peptide): EENMDDQWMQDEAAAGY
# [25] = target: T21, Ala mutant having 3-amino acid substitution, SEQ ID NO: 44 (human); assay: ELISA, peptide on plate (10 ug/mL)
# T21 sequence (peptide): AAAMDDQWMQDEMEIGY
# [26] = target: full-length recombinant mouse PAD4 (mouse) (UniProt Q9Z183); assay: ELISA, mouse PAD4 on plate, antibody 1 ug/mL
# [27] = target: full-length recombinant mouse PAD4 (mouse) (UniProt Q9Z183); assay: ELISA, mouse PAD4 on plate, antibody 6.104E-05 ug/mL
# [28] = target: full-length recombinant mouse PAD4 (mouse) (UniProt Q9Z183); assay: ELISA, mouse PAD4 on plate, antibody 0.0039063 ug/mL
# [29] = target: full-length recombinant mouse PAD4 (mouse) (UniProt Q9Z183); assay: ELISA, mouse PAD4 on plate, antibody 0.0002441 ug/mL
# [30] = target: full-length recombinant mouse PAD4 (mouse) (UniProt Q9Z183); assay: ELISA, mouse PAD4 on plate, antibody 0.0625 ug/mL
# [31] = target: full-length recombinant mouse PAD4 (mouse) (UniProt Q9Z183); assay: ELISA, mouse PAD4 on plate, antibody 0.015625 ug/mL
# Chain of full-length recombinant mouse PAD4 (mouse) (Q9Z183 whole entry): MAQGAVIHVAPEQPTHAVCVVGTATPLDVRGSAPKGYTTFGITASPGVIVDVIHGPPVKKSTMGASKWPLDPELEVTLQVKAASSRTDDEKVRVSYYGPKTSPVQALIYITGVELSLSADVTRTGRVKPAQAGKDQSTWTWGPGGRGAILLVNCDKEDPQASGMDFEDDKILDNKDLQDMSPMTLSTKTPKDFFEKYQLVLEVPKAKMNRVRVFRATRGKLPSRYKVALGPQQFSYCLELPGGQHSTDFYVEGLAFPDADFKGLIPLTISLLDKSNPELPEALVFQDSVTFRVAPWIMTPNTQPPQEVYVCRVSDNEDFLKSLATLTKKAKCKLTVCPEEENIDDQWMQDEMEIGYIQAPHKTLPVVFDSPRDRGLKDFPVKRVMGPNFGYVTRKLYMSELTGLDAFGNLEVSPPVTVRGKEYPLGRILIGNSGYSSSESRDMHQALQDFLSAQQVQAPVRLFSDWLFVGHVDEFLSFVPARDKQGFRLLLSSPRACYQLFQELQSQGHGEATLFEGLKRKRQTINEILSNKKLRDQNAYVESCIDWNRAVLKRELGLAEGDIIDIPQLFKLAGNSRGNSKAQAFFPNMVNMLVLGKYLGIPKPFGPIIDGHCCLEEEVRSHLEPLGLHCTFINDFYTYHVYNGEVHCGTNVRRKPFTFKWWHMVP
substance,measurement,setting,value
anti-dinitrophenyl (DNP) antibody (negative control),absorbance 490 nm/630 nm,[1],0.021 OD
same,absorbance 490 nm/630 nm,[2],0.023 OD
same,absorbance 490 nm/630 nm,[3],0.011 OD
same,absorbance 490 nm/630 nm,[4],0.057 OD
same,absorbance 490 nm/630 nm,[5],0.017 OD
same,absorbance 490 nm/630 nm,[6],0.008 OD
same,absorbance 490 nm/630 nm,[7],0.052 OD
same,absorbance 490 nm/630 nm,[8],0.012 OD
same,absorbance 490 nm/630 nm,[9],0.009 OD
same,absorbance 490 nm/630 nm,[10],0.004 OD
same,absorbance 490 nm/630 nm,[11],0.052 OD
same,absorbance 490 nm/630 nm,[12],0.001 OD
same,absorbance 490 nm/630 nm,[13],0.011 OD
same,absorbance 490 nm/630 nm,[14],0.008 OD
same,absorbance 490 nm/630 nm,[15],0.011 OD
same,absorbance 490 nm/630 nm,[16],0.007 OD
same,absorbance 490 nm/630 nm,[17],0.001 OD
same,absorbance 490 nm/630 nm,[18],0.01 OD
same,absorbance 490 nm/630 nm,[19],0.065 OD
same,absorbance 490 nm/630 nm,[20],0.01 OD
same,absorbance 490 nm/630 nm,[21],0.052 OD
same,absorbance 490 nm/630 nm,[22],0.012 OD
same,absorbance 490 nm/630 nm,[23],0.017 OD
same,absorbance 490 nm/630 nm,[24],0.052 OD
same,absorbance 490 nm/630 nm,[25],0.054 OD
same,absorbance 490 nm/630 nm,[26],0.028 OD
same,absorbance 490 nm/630 nm,[27],0.011 OD
same,absorbance 490 nm/630 nm,[28],0.024 OD
same,absorbance 490 nm/630 nm,[29],0.034 OD
same,absorbance 490 nm/630 nm,[30],0.02 OD
same,absorbance 490 nm/630 nm,[31],0.018 OD
